Reference: the supplement of paper PMC7877785
± gives the uncertainty stated by the source.

Assay: self-splicing fitness, log relative to wild type (ln ratio); higher = more splicing; Tetrahymena group I intron in knt gene, E. coli kanamycin selection, DiMSum; sequences stand for … in CUCUCU…GGAGGGAAAAGUUAUCAGGCAUGCACCUGGUAGCUAGUCUUUAAACCAAUAGAUUGCAUCGGUUUAAAAGGCAAGACCGUCAAAUUGCGGGAAAGGGGUCAACAGCCGUUCAGUACCAAGUCUCAGGGGAAACUUUGAGAUGGCCUUGCAAAGGGUAUGGUAAUAAGCUGACGGACAUGGUCCUAACCACGCAGCCAAGUCCUAAGUCAACAGAUCUUCUGUUGAUAUGGAUGCAGUUCACAGACUAAAUGUCGGUCGGGGAAGAUGUAUUCUUCUCAUAAGAUAUAGUCGGACCUCUCCUUAAUGGGAGCUAGCGGAUGAAGUGAUGCAACACUGGAGCCGCUGGGAACUAAUUUGUAUGCGAAAGUAUAUUGAUUAGUUUUGGAGUACUCGUGGUCG
Summary of the method: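 Library with all eight P1ex-region intron nucleotides randomised, intron inside the knt kanamycin-resistance gene on pET-22b(+), in E. coli BL21(DE3). Cells grew overnight at 37°C or 30°C on LB agar with or without 25 μg/mL kanamycin (plus 100 μg/mL carbenicillin, 50 μM IPTG, 0.2% rhamnose), in six replicate transformations. Pooled colonies were amplicon-sequenced on Illumina HiSeq 2500. DiMSum fitness is the error-weighted combination of wild-type-normalised replicate fold changes, kanamycin versus none.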

Sequence	self-splicing fitness (ln) (30 °C)	self-splicing fitness (ln) (37 °C)
ACCUAGCAAUAUUACGUAAC	-2.22 ± 0.12	-1.66 ± 0.18
ACCUAGCAAUAUUACGUACU	-0.755 ± 0.052	-0.159 ± 0.062
ACCUAGCAAUAUUACGUCAA	-2.03 ± 0.2	-1.78 ± 0.17
ACCUAGCAAUAUUACGUGAU	-1.5 ± 0.057	-0.344 ± 0.074
ACCUAGCAAUAUUACGUUAA	-2.38 ± 0.14	-1.9 ± 0.17
ACCUAGCAAUAUUACGUUGC	-2.21 ± 0.1	-1.56 ± 0.14
ACGAAGCAAUAUUACGAAAA	-3.5 ± 0.43	-2.78 ± 0.43
ACGAAGCAAUAUUACGAGUG	-2.77 ± 0.1	-2.29 ± 0.11
ACGAAGCAAUAUUACGCAAU	-1.6 ± 0.091	-1.42 ± 0.094
ACGAAGCAAUAUUACGCACA	-0.494 ± 0.096	-0.0286 ± 0.098
ACGAAGCAAUAUUACGCAUC	-3.54 ± 0.18	-3.42 ± 0.3
ACGAAGCAAUAUUACGCGAU	-2.21 ± 0.13	-0.777 ± 0.14
ACGAAGCAAUAUUACGCUAG	-1.5 ± 0.084	-0.372 ± 0.11
ACGAAGCAAUAUUACGCUCC	-2.06 ± 0.42	-0.416 ± 0.41
ACGAAGCAAUAUUACGGAGC	-3.94 ± 0.27	-1.29 ± 0.23
ACGAAGCAAUAUUACGGCGG	-0.224 ± 0.089	0.0437 ± 0.13
ACGAAGCAAUAUUACGGGGG	-2.58 ± 0.15	-2.27 ± 0.25
ACGAAGCAAUAUUACGGUAG	-2.36 ± 0.15	-2.22 ± 0.22
ACGAAGCAAUAUUACGGUCG	-0.954 ± 0.066	-0.311 ± 0.082

Sequence	self-splicing fitness (ln) (30 °C)	self-splicing fitness (ln) (37 °C)
ACGAAGCAAUAUUACGUCCG	-0.464 ± 0.097	-0.122 ± 0.12
ACGAAGCAAUAUUACGUGUA	-2.15 ± 0.058	-1.24 ± 0.058
ACGAAGCAAUAUUACGUUCA	-1.14 ± 0.05	-0.417 ± 0.057
ACGCAGCAAUAUUACGACAA	-1.61 ± 0.12	-0.427 ± 0.097
ACGCAGCAAUAUUACGACCG	-0.348 ± 0.15	-0.0722 ± 0.19
ACGCAGCAAUAUUACGACCU	0.0699 ± 0.061	0.401 ± 0.073
ACGCAGCAAUAUUACGAGCA	-1.58 ± 0.096	-1.2 ± 0.11
ACGCAGCAAUAUUACGAUAU	-2.42 ± 0.096	-1.02 ± 0.12
ACGCAGCAAUAUUACGAUUU	-1.01 ± 0.081	-0.413 ± 0.1
ACGCAGCAAUAUUACGCAUG	-3.56 ± 0.14	-2.57 ± 0.21
ACGCAGCAAUAUUACGCCAA	-3.3 ± 0.2	-1.75 ± 0.17
ACGCAGCAAUAUUACGCCGA	-1.23 ± 0.099	-0.977 ± 0.094
ACGCAGCAAUAUUACGCUAA	-1.79 ± 0.08	-0.352 ± 0.081
ACGCAGCAAUAUUACGGACU	-0.613 ± 0.081	0.0817 ± 0.098
ACGCAGCAAUAUUACGGAGG	-3.65 ± 0.15	-1.84 ± 0.12
ACGCAGCAAUAUUACGGCUA	-0.12 ± 0.064	-0.215 ± 0.075
ACGCAGCAAUAUUACGGGAC	-3.2 ± 0.22	-1.84 ± 0.2
ACGCAGCAAUAUUACGGGGG	-3.86 ± 0.2	-2.54 ± 0.19
